According to patent US20030078373A1:

Experiments:
barnase = barnase (UniProt P00648); assay: cell-based or functional assay
cyclophilin A [1] = molecular target: cyclophilin A (UniProt P62937); assay: refolding chromatography, initially denatured cyclophilin, active peak
cyclophilin A [2] = molecular target: cyclophilin A (UniProt P62937); assay: refolding chromatography, initially denatured cyclophilin, inactive peak
[3] = molecular target: IGPS (49-252) (indoleglycerol phosphate synthase lacking residues 1-48); assay: refolding chromatography, urea-denatured IGPS (49-252) on the fragment column, peak 1
[4] = molecular target: IGPS (49-252) (indoleglycerol phosphate synthase lacking residues 1-48); assay: refolding chromatography, urea-denatured IGPS (49-252) on the fragment column, peak 2 (refolded protein)

Chain of barnase (P00648 48-157 limits assumed): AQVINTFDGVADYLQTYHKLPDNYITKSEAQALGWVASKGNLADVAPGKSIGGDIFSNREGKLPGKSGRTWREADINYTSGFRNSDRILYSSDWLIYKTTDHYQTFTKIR

Substance | C, factor by which EX2 mechanism exchange is catalysed by GroEL fragment (globally exchanging amide protons of barnase) (barnase) | C, factor by which EX2 mechanism exchange is catalysed by GroEL fragment (locally exchanging amide protons of barnase) (barnase) | C, factor by which EX2 mechanism exchange is catalysed by GroEL fragment (mixed amide protons of barnase) (barnase) | Kav (cyclophilin A [1]) | Kav (cyclophilin A [2]) | Kav [3] | Kav [4]
GroEL 191-345 | 10 fold | 5 fold | 1 fold |  |  |  | 
ht-GroEL 191-345 immobilised on Ni-NTA agarose |  |  |  | 1.43 | 0.38 | 1 | 1.7
